According to publication doi:10.1101/2025.10.11.681782:

Legend:
[1] = biological target: DosR M194term (helix alpha10 truncated) D54E;del194-217 (Mycobacterium tuberculosis) (UniProt P9WMF9); experiment: EMSA
[2] = biological target: DosR (D54E, activated form; called DosR/wild type in EMSA) D54E (Mycobacterium tuberculosis) (UniProt P9WMF9); experiment: EMSA

For “GGCGGTTGGCAGACAACAGGGTCAATGGTCCCCAAGTGGATCACCGACGGGCGCGGACAAATGGCCCGCGCTTCGGGGACTTCTGTCCCTAGCCCTGGCCACGATGGGCTGGTCGGATCAAAGGCATCCGTTTCCATCGATTAGGAGGCAGGCACGTACGAAGGAAGGAT (double strand) [hspX promoter PCR product]”, the binding [1] was “binds more weakly” and the binding [2] was “binds”.
